Publication PMC7652391

Target: Mature human mitochondrial heat shock protein family D member 1 (HSPD1) (human), P10809
Test: cryo-EM structure; single-particle cryoEM of reconstituted oligomeric HSPD1; grids by TED (6 and 50 ms), chameleon (54 ms) and Vitrobot (6 s blot); 50 mM Tris, 300 mM NaCl, 10 mM MgCl2 pH 8; consensus reconstructions in C1 and C7 symmetry
Conditions: remark: other sources report otherwise

- stoichiometry N: 7
B1: Mature human mitochondrial heat shock protein family D member 1 (HSPD1), P10809 27-573 (natural protein)
chain: AKDVKFGADARALMLQGVDLLADAVAVTMGPKGRTVIIEQSWGSPKVTKDGVTVAKSIDLKDKYKNIGAKLVQDVANNTNEEAGDGTTTATVLARSIAKEGFEKISKGANPVEIRRGVMLAVDAVIAELKKQSKPVTTPEEIAQVATISANGDKEIGNIISDAMKKVGRKGVITVKDGKTLNDELEIIEGMKFDRGYISPYFINTSKGQKCEFQDAYVLLSEKKISSIQSIVPALEIANAHRKPLVIIAEDVDGEALSTLVLNRLKVGLQVVAVKAPGFGDNRKNQLKDMAIATGGAVFGEEGLTLNLEDVQPHDLGKVGEVIVTKDDAMLLKGKGDKAQIEKRIQEIIEQLDVTTSEYEKEKLNERLAKLSDGVAVLKVGGTSDVEVNEKKDRVTDALNATRAAVEEGIVLGGGCALLRCIPALDSLTPANEDQKIGIEIIKRTLKIPAMTIAKNAGVEGSLIVEKIMQSSSEVGYDAMAGDFVNMVEKGIIDPTKVVRTALLDAAGVASLLTTAEVVVTEIPKEEKDPGMGAMGGMGGGMGGGMF
